# Experimental data from patent US20130064826A1 (KALOBIOS PHARMACEUTICALS, published 2013).
# T1: CD97 (UniProt P48960 21-552, limits assumed)
# T1 sequence (looked up): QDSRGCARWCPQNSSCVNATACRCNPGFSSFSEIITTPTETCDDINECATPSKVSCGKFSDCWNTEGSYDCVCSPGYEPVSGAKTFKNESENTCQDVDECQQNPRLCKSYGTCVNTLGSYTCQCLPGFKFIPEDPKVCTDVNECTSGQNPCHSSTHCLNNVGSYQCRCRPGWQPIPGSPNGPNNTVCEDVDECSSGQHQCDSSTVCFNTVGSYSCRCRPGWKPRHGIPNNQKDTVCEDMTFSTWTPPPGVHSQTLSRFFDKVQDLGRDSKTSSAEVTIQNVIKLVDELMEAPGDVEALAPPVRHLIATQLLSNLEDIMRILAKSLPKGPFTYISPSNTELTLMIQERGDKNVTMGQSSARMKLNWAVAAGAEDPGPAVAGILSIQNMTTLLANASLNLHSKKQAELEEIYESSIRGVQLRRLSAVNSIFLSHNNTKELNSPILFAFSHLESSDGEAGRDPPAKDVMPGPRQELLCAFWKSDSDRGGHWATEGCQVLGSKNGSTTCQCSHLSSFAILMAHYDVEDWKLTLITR
# T2: EMR2 (UniProt Q9UHX3 24-540, limits assumed)
# T2 sequence (looked up): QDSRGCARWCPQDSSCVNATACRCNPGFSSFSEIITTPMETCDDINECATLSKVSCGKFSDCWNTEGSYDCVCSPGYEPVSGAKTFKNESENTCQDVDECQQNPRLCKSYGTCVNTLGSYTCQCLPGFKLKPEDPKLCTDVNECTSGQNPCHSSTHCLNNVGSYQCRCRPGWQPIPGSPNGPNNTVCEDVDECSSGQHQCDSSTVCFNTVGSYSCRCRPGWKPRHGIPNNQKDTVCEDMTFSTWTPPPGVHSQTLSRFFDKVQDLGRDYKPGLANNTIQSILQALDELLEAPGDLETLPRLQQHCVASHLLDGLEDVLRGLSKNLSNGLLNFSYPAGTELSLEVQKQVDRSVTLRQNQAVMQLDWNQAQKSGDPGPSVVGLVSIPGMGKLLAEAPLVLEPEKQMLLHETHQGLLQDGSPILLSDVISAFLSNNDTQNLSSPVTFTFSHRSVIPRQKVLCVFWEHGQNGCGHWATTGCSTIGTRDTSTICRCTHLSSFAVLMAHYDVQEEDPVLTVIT
# T3: EMR1 on human eosinophils (human, UniProt Q14246 21-886)
# T3 construct: whole, on cells
# T3 sequence (looked up): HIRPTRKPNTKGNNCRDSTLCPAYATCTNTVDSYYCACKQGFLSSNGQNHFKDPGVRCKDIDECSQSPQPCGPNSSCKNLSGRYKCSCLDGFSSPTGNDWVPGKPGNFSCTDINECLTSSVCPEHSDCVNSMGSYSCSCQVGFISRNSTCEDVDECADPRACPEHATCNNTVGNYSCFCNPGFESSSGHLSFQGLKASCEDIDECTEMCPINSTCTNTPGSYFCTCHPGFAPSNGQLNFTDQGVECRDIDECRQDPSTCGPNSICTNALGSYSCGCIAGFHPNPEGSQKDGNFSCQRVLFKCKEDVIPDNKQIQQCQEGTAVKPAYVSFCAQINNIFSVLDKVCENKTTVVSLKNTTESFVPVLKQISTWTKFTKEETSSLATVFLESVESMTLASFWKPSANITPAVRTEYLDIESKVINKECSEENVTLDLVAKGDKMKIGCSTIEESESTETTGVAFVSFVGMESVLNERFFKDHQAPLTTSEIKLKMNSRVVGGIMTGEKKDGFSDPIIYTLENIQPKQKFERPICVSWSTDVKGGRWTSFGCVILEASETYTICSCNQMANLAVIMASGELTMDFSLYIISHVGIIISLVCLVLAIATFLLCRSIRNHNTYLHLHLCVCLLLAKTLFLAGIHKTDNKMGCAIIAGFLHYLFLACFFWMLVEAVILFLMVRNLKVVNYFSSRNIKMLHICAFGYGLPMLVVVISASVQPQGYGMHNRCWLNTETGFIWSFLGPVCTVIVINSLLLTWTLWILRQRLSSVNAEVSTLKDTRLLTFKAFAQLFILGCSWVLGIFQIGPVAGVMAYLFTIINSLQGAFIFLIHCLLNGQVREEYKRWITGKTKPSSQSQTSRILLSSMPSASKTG
# T4: Peptide 7
# T4 construct: also called 18 mer; EMR1 ELD-6 271-288
# T4 peptide: RDIDECRQDPSTCGPNSI
# T5: Peptide 1
# T5 construct: also called 27 mer; EMR1 ELD-6 271-297
# T5 peptide: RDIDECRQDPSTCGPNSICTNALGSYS
# T6: Peptide 4
# T6 construct: also called 20 mer; EMR1 ELD-6 271-290
# T6 peptide: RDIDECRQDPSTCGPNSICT
# How the values were obtained:
# [1] = target: T1, CD97; experiment: not described
# [2] = target: T2, EMR2; experiment: not described
# [3] = target: T3, EMR1 on human eosinophils; experiment: flow cytometry on human eosinophils
# Experimental: Splenic B cells from mice immunized with purified human EMR1-Fc fusion protein were fused with SP2/0-Ag14 cells to generate hybridoma cell lines. Supernatants containing antibody from monoclonal lines were tested for binding to recombinant human EMR1 by ELISA. Antibodies that bound EMR1 were tested for binding to human eosinophils by flow cytometry. Polymorphonuclear-cell rich fractions from buffy coat blood were obtained by Ficoll gradient centrifugation and residual red blood cells were lysed with ammonium chloride (ACK lysis buffer). Eosinophils were isolated by negative selection using a MACS eosinophil isolation kit (Miltenyi) and incubated with 10 μg/ml rat IgG and 2% BSA to block nonspecific IgG binding before addition of anti-EMR1 antibody or isotype control antibody. Anti-mouse FITC antibody was used for detection of bound antibodies on a FACSCalibur flow cytometer.
# [4] = target: T4, Peptide 7; experiment: biolayer interferometry (ForteBio Octet)
# [5] = target: T5, Peptide 1; experiment: biolayer interferometry (ForteBio Octet)
# [6] = target: T6, Peptide 4; experiment: biolayer interferometry (ForteBio Octet)
Binder,binding result [1],binding result [2],binding result [3],binding result [4],binding result [5],binding result [6]
"monoclonal antibody 19-1E7 (antibody, V domains shown, Murine hybridoma antibody raised against human EMR1-Fc; Hybridoma supernatant was used in the screening) VH: QVQLKESGPGLVAPSQSLSITCTVSGFSLTNFGIHWVRQPPGKGLEWLGVIWSGGGTNYNSALMSRLSISKDNSKSQVFLKMNSLQTDDTAIYYCVSIYYRGFDSWGQGTTLTVSS VL: DVFMTQAPLSLPVSLGDQASISCRSSQSIVHSNGNTYLEWYLQKPGQSPKLLIYRVSNRFSGVPDRFSGSGSGTDFTLKISRVEAEDLGVYYCFQGSHVPLTFGAGTRLELK",no binding,no binding,binds,,,
"chimeric 19-1E7 IgG1k antibody (c1E7) (antibody, V domains shown, 19-1E7 variable regions combined with human gamma-1 Fc and kappa constant regions (IgG1 kappa); Made in fucosylated (CHOK1 SV) and non-fucosylated (MS704-PF) forms; also called chimeric 1E7) VH: QVQLKESGPGLVAPSQSLSITCTVSGFSLTNFGIHWVRQPPGKGLEWLGVIWSGGGTNYNSALMSRLSISKDNSKSQVFLKMNSLQTDDTAIYYCVSIYYRGFDSWGQGTTLTVSS VL: DVFMTQAPLSLPVSLGDQASISCRSSQSIVHSNGNTYLEWYLQKPGQSPKLLIYRVSNRFSGVPDRFSGSGSGTDFTLKISRVEAEDLGVYYCFQGSHVPLTFGAGTRLELK",,,,binds,binds,binds
